Article doi:10.1101/2020.07.16.20155853

Biological target: SARS-CoV-2 Cys-like protease (Mpro) (SARS-CoV-2 (Wuhan-Hu-1 strain))
Experiment: SEC

## SARS-CoV-2 Cys-like protease (Mpro) (enzyme)
  stoichiometry N: 2
